Results on 21 molecules are retold here after patent publication US20180222987A1.

Residue numbers refer to the chain shown, from its start.

Experiment [1] deals with Macaca fascicularis CD3ε/δ-Fc fusion heterodimer (Macaca fascicularis) (UniProt Q95LI8). Kind of experiment: SPR Biacore, Fab; unit inferred.
The target in experiment [2] is human CD123 on cells (human) (UniProt P26951). Kind of experiment: flow cytometry, TF-1 cells, 3 µg antibody. (A flow cytometer gives signals particle by particle.)
Experiment [3] has the same target. Kind of experiment: flow cytometry, THP-1 cells, 3 µg antibody.
The target is the same in experiment [4]. The experiment is described as follows: cell-based or functional assay.
In experiment [5] the target is Macaca fascicularis CD3ε/δ-Fc fusion heterodimer (Macaca fascicularis) (UniProt Q95LI8). The experiment is described as follows: SPR, steady state.
Experiment [6] has the same target. Kind of experiment: SPR, cyno against human CD3ε/δ. On the technique in general: Surface plasmon resonance follows binding to a sensor surface in real time, without labels.
Experiment [7] shares this target. The experiment is described as follows: SPR single point, hybridoma supernatant.
Experiment [8] shares this target. The experiment is described as follows: SPR, CD3ε/δ-Fc captured, Fab analyte.

Sequence of Macaca fascicularis CD3ε/δ-Fc fusion heterodimer (Macaca fascicularis) (chain, as listed by the source mutant, chain 1 of 2): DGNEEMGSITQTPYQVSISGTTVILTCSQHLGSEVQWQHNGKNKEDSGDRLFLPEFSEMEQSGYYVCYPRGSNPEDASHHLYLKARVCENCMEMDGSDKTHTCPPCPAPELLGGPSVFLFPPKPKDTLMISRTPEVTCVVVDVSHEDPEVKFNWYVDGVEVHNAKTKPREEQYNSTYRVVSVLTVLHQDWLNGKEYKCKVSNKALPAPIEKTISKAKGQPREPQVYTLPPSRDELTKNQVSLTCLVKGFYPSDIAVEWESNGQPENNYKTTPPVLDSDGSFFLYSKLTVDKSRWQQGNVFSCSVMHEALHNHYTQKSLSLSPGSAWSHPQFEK
Sequence of Macaca fascicularis CD3ε/δ-Fc fusion heterodimer (Macaca fascicularis) (Q95LI8 22-105, stated change not applied, chain 2 of 2): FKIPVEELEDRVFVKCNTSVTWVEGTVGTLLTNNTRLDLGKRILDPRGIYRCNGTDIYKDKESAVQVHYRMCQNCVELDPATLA
Sequence of human CD123 on cells (human) (P26951 19-378): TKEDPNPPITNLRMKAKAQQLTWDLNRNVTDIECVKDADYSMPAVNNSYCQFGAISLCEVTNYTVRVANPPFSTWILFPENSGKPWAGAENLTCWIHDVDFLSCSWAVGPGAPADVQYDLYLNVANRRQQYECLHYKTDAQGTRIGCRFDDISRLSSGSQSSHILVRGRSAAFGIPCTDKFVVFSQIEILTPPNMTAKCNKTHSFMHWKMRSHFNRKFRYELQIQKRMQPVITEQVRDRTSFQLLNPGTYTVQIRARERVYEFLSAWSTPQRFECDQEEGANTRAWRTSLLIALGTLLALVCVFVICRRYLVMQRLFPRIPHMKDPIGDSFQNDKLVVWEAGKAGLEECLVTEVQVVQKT

B1: humanized 4B4 Fab 4B4_5 (VL2C / VH6D) (Fab, V domains shown)
VH: QVQLVESGGGVVQPGRSLRLSCATSGFTFSNAWMHWVRQAPGKQLEWVAQIKARSNNYATYYADSVKGRFTISRDDSKSTIYLQMNSLRAEDTAVYYCRGTYYASKPFDYWGQGTLVTVSS
VL: DIVMTQTPLSLSVTPGQPASISCKSSQSLVHDNGNTYLSWSLQKPGQSPQVLIYKVSNRFSGVPDRFSGSGSGTDFTLKISRVEAEDVGVYYCGQGTQYPFTFGSGTKLEIK
For the molecule B1, the Kd (usually the equilibrium constant for the complex coming apart) in experiment [1] is 16.6 nM. In other words, the double-digit nanomolar range.

B2: humanized 4B4 Fab 4B4_10 (VL1_CM2 / VH6_BM2) (Fab, V domains shown)
VH: B1 VH with G10R, S21T, T24A, D64E, L116T
VL: B1 VL with I2V, T7S, P15L, A19V, K24R, K44R, Q50R
As for B2, the equilibrium dissociation constant (Kd) in experiment [1] came out at 8.94 nM. This Kd is about 1.9-fold lower than that of the molecule before.

B3: humanized 4B4 Fab 4B4_20 (VL2F / VH6C) (Fab, V domains shown)
VH: B1 VH with T24A, I81L
VL: B1 VL with G34A, S41Y, V51S, L109V
For B3, in experiment [1], the Kd came out at 43.4 nM.

B4: humanized 4B4 Fab 4B4_11 (VL1_CM3 / VH6_BM2) (Fab, V domains shown)
VH: B1 VH with G10R, S21T, T24A, D64E, L116T
VL: B1 VL with I2V, T7S, P15L, A19V, K24R, G34A, K44R, Q50R
On to B4, for which, in experiment [1], the Kd stood at 20.4 nM.

B5: CODV-Fab BFX-9B8-G6 × CD3 (bispecific antibody, part only; not given: CD3 arm, linkers, constant domains, tag, V domains shown, not shown: another chain or arm of the molecule; a dimerising Fc or GST; small tags and cut ends)
VH: EVKLQESGPSLVQSSQTLSLTCTVSGFSLTSYHIHWVRQPPGKGLEWMGVMWSDGDTSYSSALKSRLSISRDTSQSQVFLKMNSLQTEDTATYYCARGDYSSYIYLWFAYWGQGTLVTVSS
VL: DIVMTQSPSSLAVSAGETVTINCKSSQSFLSSGDERNYVAWYQHKPGQSPKLLIYWASTRHSGVPDRFIGSGSGTDFTLTISSVQAEDLAIYYCQQYYDTPLTFGSGTKLEIK
On to B5, for which the % FITC positive cells turned out to be 31.1% in experiment [2] and 48.8% in experiment [3].

B6: CODV-Fab BFX-9D7-C8 × CD3 (bispecific antibody, part only; not given: CD3 arm, linkers, constant domains, tag, V domains shown, not shown: another chain or arm of the molecule; a dimerising Fc or GST; small tags and cut ends)
VH: B5 VH with P40T, S60N, D99Y, I104L
VL: B5 VL with A15E, E35G, R36K, H44Y, H61Q, S83T
As to B6, the % FITC positive cells in experiment [2] was determined as 50.2%; in experiment [3] it was 88.7%.

B7: CODV-Fab 7G3 × OKT3 (bispecific antibody, part only; not given: OKT3 variable domains, full chains, V domains shown, part only)
VH: EVQLQQSGPELVKPGASVKMSCKASGYTFTDYYMKWVKQSHGKSLEWIGDIIPSNGATFYNQKFKGKATLTVDRSSSTAYMHLNSLTSEDSAVYYCTRSHLLRASWFAYWGQGTLVTVSA
VL: DFVMTQSPSSLTVTAGEKVTMSCKSSQSLLNSGNQKNYLTWYLQKPGQPPKLLIYWASTRESGVPDRFTGSGSGTDFTLTISSVQAEDLAVYYCQNDYSYPYTFGGGTKLEIK
With B7, the Activity EC50 (cytotoxic assay, THP-1 targets + primary human T cells) in experiment [4] was 0.016 µg/mL.

B8: 12D2-E5 Fab (Fab, V domains shown)
VH: EVKLVESGGGLVQPGRSLRLSCAASGFNFYAYWMGWVRQAPGKGLEWIGEIKKDGTTINYTPSLKDRFTISRDNAQNTLYLQMTKLGSEDTALYYCAREERDGYFDYWGQGVMVTVSS
VL: QFVLTQPNSVSTNLGSTVKLSCKRSTGNIGSNYVNWYQQHEGRSPTTMIYRDDKRPDGVPDRFSGSIDRSSNSALLTINNVQTEDEADYFCQSYSSGIVFGGGTKLTVL
Turning to B8, in experiment [5], the Kd turned out to be 4.8 nM. The ratio KD(cy)/KD(hu) in experiment [6] came out at 4.

B9: 12D2-E5 anti-CD3 antibody (antibody, V domains shown)
VH: B8 VH
VL: B8 VL
Regarding B9, the RU at 25 nM in experiment [7] is 5 RU.

B10: CODV-Fab BFX-9F6-G3 × CD3 (bispecific antibody, part only; not given: CD3 arm, linkers, constant domains, tag, V domains shown, not shown: another chain or arm of the molecule; a dimerising Fc or GST; small tags and cut ends)
VH: QVQLQESGPTLVKPGDSVKMSCKASGYTFTDYIIHWVKQSHGKSLEWIGYINPYSDGTNYNEKFKSKATLTVDKSTSTAYMEFSRLTSEDSAIYFCALNYGSYYAMDAWGQGTSVTVSS
VL: DIQMTQSPASLSASLGETVTIECRPSEDIHSNVAWYQQKPGNSPQLLIYDASNLADGVPSRFSGSGSGTQYSLKINSLQSEDVASYFCHQYNIYPYTFGSGTKLELK
Consider B10, for which the % FITC positive cells was determined as 60.7% in experiment [2] and 99.7% in experiment [3].

B11: 1E6 Fab (Fab, V domains shown)
VH: EVQLVETGGSLVQPGKSLKLTCATSGFTFSYAWMHWVRQSPDKQLQWVAQIKAKSNNYATYYAESVEGRFTISRDDSKSSVYLQMNSLKEEDTAIYYCRGVYYGLLGLDAWGQGTSVTVSS
VL: DVVMTQTPVSLSVRLGGQVSISCRSSQSLVHNNGNTYLSWFLQKPGQSPQLLIYKVSNRFSGISDRFSGSASGTDFTLKISRVEPDDLGVYYCGQGTHYPFTFGSGTKLEIK
Regarding B11, the ratio KD(cy)/KD(hu) in experiment [6] stood at 1. Besides, in experiment [8], the Kd amounted to 42 nM; the dissociation rate constant (koff) – broadly, the first-order rate constant of dissociation – was 0.0042 s⁻¹; the kon (as a rule, the rate constant with which the complex forms) was found to be 100000 M⁻¹ s⁻¹.

B12: 13H2 Fab (Fab, V domains shown)
VH: EEELVETGGSLVQPGKSLKLTCATSGFTFSNAWMHWVRQSPDKQLEWVAQIKAKSNNYATYYAESVKGRFTISRDDSKSSVYLQMNNLKEEDTAIYYCRYVHYGLAPMDAWGQGTSVTVSS
VL: B11 VL with R14S, F41Y, P45A, A71G, T77I, Y91F, H98Q, S105A, I111L
B12: the ratio KD(cy)/KD(hu) in experiment [6] was found to be 1. In experiment [8], this molecule returned a Kd of 32 nM, a koff of 0.0059 s⁻¹ and an association rate constant (kon) of 180000 M⁻¹ s⁻¹.

B13: humanized 4B4 Fab 4B4_17 (VL2A / VH2B) (Fab, V domains shown)
VH: EVQLVETGGGLVQPGGSLKLTCATSGFTFSNAWMHWVRQSPEKGLEWVAQIKARSNNYATYYADSVKGRFTISRDDSKSTIYLQMNSLRAEDTAIYYCRGTYYASKPFDYWGQGVMVTVSS
VL: B11 VL with R14S, L15P, Q18P, N32D, F41S, L51V, I63V, S68T, A71G, H98Q
In experiment [1], B13 registered a Kd of 9.07 nM.

B14: 5B1-G2 Fab (Fab, V domains shown)
VH: EVQVVETGGSLVQPGKSLKLTCATSGFSFSNAWMHWVRQSPEKQLEWVAQIKDKANNYATYYAESVKGRFTISRDDSKGSIYLQMNSLKEEDTAVYYCRGLYYGLFPSDYWGQGVMVTVSS
VL: B11 VL with R14S, F41Y, Q43L, S70G, A71G, V83L, V90I, H98Q
Turning to B14, the ratio KD(cy)/KD(hu) in experiment [6] is 1. In experiment [8], this molecule returned a Kd of 4.3 nM, a koff of 0.00015 s⁻¹ and a kon of 34000 M⁻¹ s⁻¹.

B15: CODV-Fab BFX-2F8-D6 × CD3 (bispecific antibody, V domains shown, not shown: a dimerising Fc or GST; small tags and cut ends)
VH: QVQLKESGPGLVQPSQTLSLTCTVSGFSLTSYGVSWVRQPPGKGLEWIATISSAGSTYYDLVLKSRLSITRDTSKSQVFLKVHSLQTEDTAIYLCARDAPVFNYGSYNAMDSWGQGTSVTVSS
VL: DIQMTQSPSFLSATVGDRVTINCKASQNINKYLNWYQQKLGEAPKRLIYNTNSLQTGIPSRFSGSGSGTDYTLTISSLQPEDVATYFCLQHKSGLTFGSGTKLEIK
Consider B15, for which the % FITC positive cells amounted to 9.3% in experiment [2] and 24% in experiment [3].

B16: humanized 4B4 Fab 4B4_1 (VL1a / VH1B) (Fab, V domains shown)
VH: B13 VH with E1Q, Q13K, G16Q, D64V, R89T, A90P
VL: DVVMTQTPVSLSVSVGGRVSISCRSSQSLVHDNGNTYLSWSLQKPGKSPKVLIYKVSNRFSGVSSRFTGSGSGTDFTLKISSVQPDDLGVYYCGQGTQYPFTFGSGTKLEIK
B16 gave a Kd in experiment [1] of 3.13 nM.

B17: humanized 4B4 Fab 4B4_2 (VL1b / VH1B) (Fab, V domains shown)
VH: B13 VH with E1Q, Q13K, G16Q, D64V, R89T, A90P
VL: B16 VL with G34A
On to B17, for which the Kd in experiment [1] amounted to 7.57 nM.

B18: humanized 4B4 Fab 4B4_7 (VL1b / VH1A) (Fab, V domains shown)
VH: B13 VH with E1Q, Q13K, G16Q, D64E, R89T, A90P
VL: B16 VL with G34A
Consider B18, for which the Kd in experiment [1] stood at 7.28 nM. The Kd values of the last two molecules are within 1.5-fold of each other.

B19: humanized 4B4 Fab 4B4_9 (VL2B / VH2A) (Fab, V domains shown)
VH: B13 VH with D64E
VL: B16 VL with V15P, R18P, G34A, K47Q, K50Q, S65D, S82R, Q84E
In experiment [1], B19 had a Kd of 12.1 nM. Compared with the last molecule, the Kd is about 1.7-fold higher.

B20: humanized 4B4 Fab 4B4_6 (VL1a / VH1A) (Fab, V domains shown)
VH: B13 VH with E1Q, Q13K, G16Q, D64E, R89T, A90P
VL: B16 VL
In experiment [1], B20 gave a Kd of 1.19 nM.

B21: CODV-Fab BFX-3E3-D3 × CD3 (bispecific antibody, part only; not given: CD3 arm, linkers, constant domains, V domains shown, part only)
VH: QVQLQESGPGLVQPSQTLSLTCTVSGFSLTTYDVHWVRQPPGKGLEWMGRIQNGGITDYNSALKSRLIISRDTSKSQVFLKMNSVQTEDTAMYFCAKTGSYFYAFDHWGQGTLVTVSS
VL: QFVLTQPNSVSTNLGSTVKLSCKRNTGNIGSNYVNWYQQHEGRSPTTMIYRDDKRPDGVPDRFSGSIDRSSNSALLTINNVQTEDEADYFCQSYSSGINIIFGGGTKLTVL
B21: in experiment [4], the EC50 cytotoxic assay (THP-1), geomean is 0.0122 µg/mL. The values for the % FITC positive cells in experiment [2] and in experiment [3] were 31.6% and 99%, respectively.
